# B1: T7 Endonuclease I: T7 Endonuclease I (New England Biolabs) (protein, UniProt P00641 1-149, looked up)
# Endonuclease I: MAGYGAKGIRKVGAFRSGLEDKVSKQLESKGIKFEYEEWKVPYVIPASNHTYTPDFLLPNGIFVETKGLWESDDRKKHLLIREQHPELDIRIVFSSSRTKLYKGSPTSYGEFCEKHGIKFADKLIPAEWIKEPKKEVPFDRLKRKGGKK
# System: non-obese diabetic mice (NOD/ShiLtJ) colonized with E. coli VT-55
# Format: in vivo
# Details: NOD mice gavaged with E. coli VT-55; regimen of each agent as in Table 3; positive control (no therapy) 16, negative controls 24 and 26
# Description: For this study non-obese diabetic mice (NOD/ShiLtJ) 8 weeks old (Jackson Laboratory, Bar Harbor, Me., USA) were housed and bred under specific pathogen-free conditions. Mice were maintained in a temperature controlled (22±2° C.) animal facility with a 12 hour light/dark cycle and were allowed free access to food and acidified drinking water. To increase the efficacy of E. coli transfer, all animals were exposed to antibiotic treatment before the transfer of E. coli. Starting at three weeks of age, recipient mice were treated with ampicillin (1 g/L) in the drinking water for the next 4 weeks. The bacterial strains used: E. coli strain VT-55—a wild-type, amyloid-producing strain. E. coli VT-55 bacteria were administered with oropharyngeal gavage to 8 week old female mice at 10^8 CFU, 2 times a week. Acceleration of T1D development was accessed by measuring blood glucose in a manner consistent with diabetes monitoring, using a FreeStyle Lite meter and test strips (Abbott). Blood glucose was evaluated weekly via a tail vein. T1D development was defined as occurring after two consecutive blood glucose measurements of at least 250 mg/dL.
# TTR was expressed in E. coli VT-243. The TTR protein was precipitated from the supernatant of a 48 hour culture of E. coli VT-243 after centrifugation (12,000×g, 20 minutes 4° C.) of the lysed cells in the gradient 40-90% ammonium sulfate fraction (1.8-3.6 M). The precipitate that contained TTR was dialyzed overnight against 10 mM sodium phosphate buffer, pH 7.5, 100 mM KCl, 1 mM EDTA. The same volume of 200 mM sodium acetate buffer (pH 4.4, 100 mM KCl, 1 mM EDTA) was added to achieve a final pH of 4.5, and the mixture was then incubated for 18 hours at 37° C. Following centrifugation (45 min, 30,000×g, 4° C.), the supernatant was gel filtrated (Superdex 75) to elute phosphate buffer.
# To develop nanoparticles with siRNA, we used cholesterol, distearoyl-sn-glycerol-3-phosphocholine (DSPC) and PEG2000-DMG (all Sigma). Nanoparticles were prepared by dissolving the 306013 lipidoid, cholesterol, DSPC, and PEG2000-DMG with final molar ratio of 50:38.5:10:1.5 in a 90% ethanol enriched with 10% 10 nM sodium citrate. Particles were formed following vortexing of equal volumes of siRNA solution with the lipid solution and subsequent dilution in PBS. Mice were orally gavaged with nanoparticles loaded with siRNA at a dose of 5 mg/kg.
# The EcVac vaccine consisted of conjugates containing the 0-antigens of serotypes 06 of E. coli VT-55. […] The suspension for iv administration was made in TBS, (pH 7.4; 25 mmol Tris, 137 mmol NaCl, 2.8 mmol KCl).
# Balb/c mice were immunized (10 μg) intraperitoneally and boosted (1 μg) subcutaneously with the E. coli amyloid isolated as previously described. Splenocytes were removed under sterile conditions, washed and hybridized to murine plasmacytoma parent cell line SP2/OAg14 using 40% polyethylene glycol and a spleen cell to plasmacytoma cell ratio of 5:1. Cells were plated in 96-well microtiter (Sarstedt) plates at 100,000 cells/per well with DMEM supplemented with 10% fetal bovine serum. Following 48h, cells were supplemented with hypoxanthine (100 PM) containing medium. After three washes with PBS-1% BSA, the presence of specific antibody binding was detected by ELISA. Serotype specific wells were cloned. Pristine-primed BALB/c mice were IP injected with 1×10^7 hybridoma cells. Ascites fluid was collected 14 days later, centrifuged (5000 g, 20 min, Eppendorf) and stored at −80° C. before use.
molecule,measurement,value
B1,Median T1D incidence 50% (weeks),22 weeks

# Reference: patent US11918610B2, “Methods for diagnosis and treatment of type 1 diabetes” (priority 2018, dated 2024)
